From the domain aggregation screens of Martell et al. (2025)

Assay: soluble fraction after stress (log2 fold change); higher = more stays soluble; pooled small domains, quantitative proteomics
Conditions: stress: pH 4
Procedure, shortened: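 How much of each domain stays soluble after acid stress, expressed as a fold change, is used to gauge aggregation propensity. Pooled custom libraries of small domains underwent pH 4 stress before high-throughput quantitative proteomics. A higher log2 value means more of the domain stayed soluble.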

Row | Sequence | soluble fraction (log2)
1 | HMREWPLWEIFIRGQHGLNHRHVGSLHAPDAAMAIGNARDVYTRRNEGVSIWAVRSADVVASVPSE | -1.44
2 | HMPIDIEPVLQWIRDNSIDGIGPARSMYHSAAAAAGLPSYSSLQLRKWTWPLLLDAAGVQRR | -0.265
3 | HMDATGDPIADRILQALQLGELTRTQVNNVFQRHLAAARISQALNFLRSLKRADMRMEETAGRSGEVWFAI | -0.254
4 | HMEKPYTPPANLNEIQSYEELSKAVQYYNKVKDAATTDADRLKAQQSIDTLEDMRKAWDAASST | -0.312
5 | HMTTTPAERQRTILRSLNRVDPVSVDALARLTGVSVVTIRRDLSDLASRDLIRRVHGGALLPTR | 0.339
6 | HMKTILEKDQRLAKYISYLIKRKRLSPEQVIEHLKTDDHGYEKYPKSINTIYAAIDKGLIPSVTRQDM | ≥ 0.43
7 | HMGGTATDYYNQGRTAYDVGDYNGALMNFQEAVRLDPRYGEAYYGLGKAYEALNMQNQALDAYLSAI | -1.46
8 | HMRTSPGADYEKTYYTIQSGDNLGAIAEKMGVSVADLKDWNDISGTKIYAGKKLVIYVKKGST | -0.209
9 | HMAQLSDDEQAIIDTITRRGDATMSELIASVNVSTPRLMSMLIDMEFRSLITALPGGRYQIRLIN | -0.464
10 | HMNNLSEELNVTFPRTRDQLLNILHYVQHKYGYISKVSMQEIGNHIKMPVSEIYGTVTSYSEFKI | -0.965
11 | HMDWVAYGAELRRRRLLAGWTVAELSRRINLSGMTIHQIEKGRGRLRPSELTLAKLAAALGMPTP | ≥ 0.43
12 | HMGSYIGEAKAKEIALSHAGVSASQATFVRSQFEYDDGRAVYDVDFWSGNKEYDYEIDAKSGTIVSYDFD | 0.0669
13 | HMEITGKYKAKEDIKLKVIPLISSLDLQDIKQNTELEVKDTMNNWAYVTVQEKQGWVVLEKIEKVE | -1.07
14 | HMLSLGIMEADMLKTGKHTISGISKATPEQRQKIDSDIEELKKKYPEKNITSKVENDNLIVESGVTAP | 0.0639
15 | HMYLQKGISNGKVYLSIVHGYRDPVTKKVRRKTIRSLGYLEDLEKQYADPIKHFEAVVAKMNEEEALE | 0.0302
16 | HMDSLARKTVNGAEFYIYPVESAEGFYSLRRKFGVSQEEVIKYNPSAQNGLKSGQVLLIPVT | 0.125
17 | HMEYTVNRLAQISGVSKRTLRYYDEIGLLRPERVNPNGYRIYGQMQVDLLQQILFYRELGLPLEEIREII | -0.639
18 | HMIVNEQEQTFIKAMRDDDFNTILELKMKGYQPSDNVLKSLQPDISSTTFIAAAKIFQMERMLK | ≥ 0.43
19 | HMAYLTGFHAIEELIRAGKAKGPLLVANAGPRARTIMSLATDNKIRIDRLGEHELNRLAPGNRGIALYVE | ≥ 0.43
20 | HMNIFAHQIGKLRTERHLSQTDVAKRLYVSRQAVSKWENGDAEPSLDNLIALAKLFNVSLDNLITGQ | 0.138
21 | HMGLYPYSGTPADNQEANERRIFDIYSTHLERIFSDFSGATLRTKRLVLRLMQELVHSDPVRMAGILDEL | 0.1
22 | HMDAEELNSKAKDEFTWLEDDESETNLEYRKMVSSEDMAIVAKVAPALAAKLKYQLAHAATNMV | -0.529
23 | HMRREIRLTVTEEIVLMKFLLTQIPYKNRDNFKTLLNDRQIRVNGSVVTWYNHPLKPGQEVTIGWFKM | -0.628
24 | HMAVNSALVQRNWLIGYRIAEEELQGDNRAEYGASIIKKLAKELTAEYGKGYTKTNLYHFYSFYKT | -0.494
25 | HMSMDAVSLANRLLRFFQKRPGRKFTAADLAFETGMNERTGKSLVTSALEILSRTNQIEADGDGFRLKM | 0.243
26 | HMTEKIRLTVDEAGKNQRVDKYISTLLTQFSRSSIKTWIETGNILLDNTRTKPRTLLSPGQVIDIQPRFED | -0.144
27 | HMVKKYEKVKEYLLERILDGTYVPDLPIPPERELASLLDVNRMTVRRAVEELMYDGYLIRKKGSGTYLTR | -0.2
28 | HMHRGEIVDGVIASVNPRSILIDIGGKSDALVHPRELERMSDEDLRSLKPGQDVSVYVIETDSDGTMLVSL | -0.86

Row | Sequence | soluble fraction (log2)
29 | HMGGEPVSARVPDTLHGARLDATAAALFPDFSRSRLAEWIKAGRLRRNDQPAKPRDKVAVDDHLLLIPEY | -0.431
30 | HMNNQMTFSKFLNEVDAGRVVEVEIQGNNIKGVLADGNRFNTFSPNYPNLVEKLSDKGVSITAAPK | 0.205
31 | HMPSALGDKIRAARKALKLSLEDLAEKVSSSKSYMWELENRDEPNPGADLLMRIAAALNVTTEHLLGP | -0.0842
32 | HMDSIDVQQKKLLTDIELGNIEGIKLFLKRHNNTINFLTIKGFHPLVYAVRNNNMEIVNLFLTT | 0.159
33 | HMKDLQHLVGEKGTTVTPLRPSGIALIKGSRYDVVSEGSFIQQGVAVEVIKVEGRRVVVSPLQED | -0.0748
34 | HMVAPKTEEQQKMFLESIVTKRQAETLIEKYPNIVQDIIDGTDNVDLANLKGIGEHTYNLIKEKVLSNY | -0.159
35 | HMPDPLYLINGKIVNKSDFNNIDPRSIQSIEVLKANKALEAFGNDGKNGVIKITLKSSNDQM | 0.22
36 | HMAPQAETLLRQVMALPSKDRAVLYLHYYEGFSTREVGDMLHISQSAVTTRLLRARKKLKEIL | -0.754
37 | HMDIFGREAEVEQILQEVRFGDDPHYRLSIGILPVTGHAGAGKTALVRFIFHHEVARAEFTVRMWVHV | -0.998
38 | HMNYTQAQIDRANAVSLEDFLRTQGETLIKSGREYRWKEHDSLTVRGNKWFRHSQSKGGYPIDFVMEFTA | -0.0561
39 | HMIIVMSANANAREISEVIARIRAMGYDVHLSHGKERTIIGVIGRGTPIDREQLSLMSGVQQVMPV | -0.109
40 | HMQIMVVDEADRMLDMGFIPDIERIFQLTPFTRQTLFFSATMAPEIERITDTFLHSPERIEVAR | -1.14
41 | HMFQNYTDAVVVASKTFFYNMPDESTRKSAYLIQGDRIMVEKSQRNFVYVTFTNEASGRTTTGWLKSDDLE | -0.00722
42 | HMTINPFSTLAVRELEILHYLLNGHRTKEIATNLGLKMNTVSTIKSNIFEKVKADSFTHLLQLAHVHQIS | -0.0952
43 | HMTPESSLHSGLGKILHDALTAKIQLTNFEAKFLSDMQSKYDLNGSFSWLSSKQQTTLEKILAKYGR | 0.0478
44 | HMSQKVQEDFLGDIRKNEIAVTVFLINGVKLQGVITWFDDASILLRRDGHTQLIYKHAVSTIMPGVAVDI | -0.632
45 | HMDYTGIPQSLLDLMKKDNIMPMQIQRAVAERNYYPVDTPISNYDPMFIEAKLVGAWDQVLNVISHLDLP | -1.51
46 | HMGEKVIAVSGGFDPIHVGHLRMMQDAAQHGRLVVIVNSDEWLLKKKGYVFMPWEERAELIGAYDFVDE | -0.6
47 | HMYPEDMMSLMRRALRLINHLESNRKDRHNSRQLELTESKIRRLARYYKGRGLIETEWAYKRDQLRLLV | -0.184
48 | HMLPNIKSEMEILGDNAKARLEAAELWSKKYLSNEAYDTMSKLATTADGVKAIEEIMNITKS | -0.274
49 | HMGVQKGKDNALAVQQWIAERDATGDFGEYERRGIINRSALFDELGIPRSSMGSNDQIRQMIEAADVRWF | -0.663
50 | HMYDEAAIRKAVMTFVTDNRDERLDLAKISAVLTSKFGNINFDELGYKRFSSFIDSFPELRRNNTFVSLR | -0.193
51 | HMNREIVVYITGAVDNPGLYRLPLDSRLDDVLKLAVLSTNADREVLNPAQKLKDGQKIVVPYIVE | -0.452
52 | HMPMDYFELFNIPRNANRETIKKILDQEYEKYRARVVSPVLEIRHEAELMLVEISKAKQVLLG | -0.223
53 | HMKEILTNESIIQFVKDKVSEEQIIYKINNSPIDFKLDVNSMVSLAKQNVSSTIIIAMENAMNN | -0.522
54 | HMPVEFVKISIKPGHPWENQFVRDIVSLPDLLMVLILRGEERIIPNGNTKILVGDKIVLSALSPG | -1.4
55 | HMTARPTLEKLKYMIHEAGITENSLKVIVATKGHYGLDADISTYSDDFITRWIIPNWTKIVQTISNNK | 0.0354
